Results on four molecules are retold here after US20180244778A1 (THERAPIX BIOSCIENCES, published 2018).

Assay [1] concerns the target T1, human cell-surface CD3 (Cluster of Differentiation 3) on Jurkat cells (human, UniProt P07766 23-207).
T1 construct: whole, on cells; CD3 is a complex of several chains; also called human CD3; CD3 T-cell-surface molecule
Description: direct binding by FACS, dilution series on 3×10^5 Jurkat cells.

The target of assay [2] is T1, human cell-surface CD3 (Cluster of …). Put plainly: competition FACS on Jurkat cells; competitor OKT3-PE at 0.02 µg/mL.

B1: OKT3-PE labeled conjugate (Abcam Cat. No. ab86882) (antibody, mouse IgG2a, V domains shown)
VH: not shown
VL: QIVLTQSPAIMSASPGEKVTMTCSASSSVSYMNWYQQKSGTSPKRWIYDTSKLASGVPAHFRGSGSGTSYSLTISGMEAEDAATYYCQQWSSNPFTFGSGTKLEINR
modifications: PE (phycoerythrin) conjugate, site not stated
notes: Bought PE conjugate of OKT3; also called labeled OKT3
In assay [1], B1 had an EC50 of 0.02 µg/mL.

B2: VH2ala/Vκ2 humanized anti-CD3 mAb (antibody, V domains shown)
VH: QVQLVQSGSELKKPGASVKVSCKASGYTFTRYTMHWVRQAPGKGLEWIGYINPSRGYTNYNQKFKDRATITTDKSTSTAYMELSSLRSEDTAVYYCARYYDDHYALDYWGQGTLVTVSS
VL: QIVLTQSPATLSLSPGERATLSCSASSSVSYMNWYQQKPGKAPKRWIYDTSKLASGVPSRFSGSGSGTDYTLTISSLQPEDFATYYCQQWSSNPFTFGGGTKVEIKR
B2 displayed an IC50 in assay [2] of 0.045 µg/mL.

B3: VH2ser/Vκ2 humanized anti-CD3 mAb (antibody, V domains shown)
VH: QVQLVQSGSELKKPGASVKVSCKASGYTFTRYTMHWVRQAPGKGLEWIGYINPSRGYTNYNQKFKDRATITTDKSTSTAYMELSSLRSEDTAVYYCARYYDDHYSLDYWGQGTLVTVSS
VL: QIVLTQSPATLSLSPGERATLSCSASSSVSYMNWYQQKPGKAPKRWIYDTSKLASGVPSRFSGSGSGTDYTLTISSLQPEDFATYYCQQWSSNPFTFGGGTKVEIK
notes: Human IgG4 (Ser241Pro) / κ; also called VH2ser/Vκ2 mutant; VH2scr/VK2
In assay [2], B3 registered an IC50 of 0.041 µg/mL.

B4: VH2val/Vκ2 humanized anti-CD3 mAb (antibody, V domains shown)
VH: QVQLVQSGSELKKPGASVKVSCKASGYTFTRYTMHWVRQAPGKGLEWIGYINPSRGYTNYNQKFKDRATITTDKSTSTAYMELSSLRSEDTAVYYCARYYDDHYVLDYWGQGTLVTVSS
VL: QIVLTQSPATLSLSPGERATLSCSASSSVSYMNWYQQKPGKAPKRWIYDTSKLASGVPSRFSGSGSGTDYTLTISSLQPEDFATYYCQQWSSNPFTFGGGTKVEIKR
The molecule B4 registered an IC50 in assay [2] of 0.055 µg/mL.
